Data on 14 molecules can be found in US20060018902A1 (published 2006).

Sequences and labels used below:
T1: human erythropoietin receptor (EpoR) on human erythroleukemic cells (human, UniProt P19235 25-508)
T1 sequence (looked up): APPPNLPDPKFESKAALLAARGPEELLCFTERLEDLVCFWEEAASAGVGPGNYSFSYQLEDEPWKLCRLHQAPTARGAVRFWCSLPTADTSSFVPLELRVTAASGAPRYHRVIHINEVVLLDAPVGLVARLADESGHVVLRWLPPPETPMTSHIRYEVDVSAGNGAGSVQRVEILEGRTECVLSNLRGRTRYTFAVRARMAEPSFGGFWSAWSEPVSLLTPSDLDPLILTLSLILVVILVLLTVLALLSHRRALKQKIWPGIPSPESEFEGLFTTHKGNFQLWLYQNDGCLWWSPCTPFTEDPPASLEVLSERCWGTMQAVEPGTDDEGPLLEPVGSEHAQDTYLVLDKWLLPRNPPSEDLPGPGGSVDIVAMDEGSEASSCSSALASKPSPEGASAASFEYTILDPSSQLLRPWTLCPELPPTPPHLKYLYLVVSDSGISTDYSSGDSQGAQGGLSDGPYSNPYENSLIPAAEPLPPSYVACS

T2: soluble EpoR (EposR) (human, UniProt P19235 25-250, limits assumed)
T2 construct: also called soluble recombinant human EpoR
T2 sequence (looked up): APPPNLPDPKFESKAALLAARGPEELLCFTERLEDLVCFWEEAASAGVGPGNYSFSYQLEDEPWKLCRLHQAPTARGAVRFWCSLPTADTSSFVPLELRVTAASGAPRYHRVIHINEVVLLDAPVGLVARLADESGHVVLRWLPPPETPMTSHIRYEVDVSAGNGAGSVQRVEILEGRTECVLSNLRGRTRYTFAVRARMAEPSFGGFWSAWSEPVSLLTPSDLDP

T3: soluble EpoR (EposR) (human, UniProt P19235 25-250)
T3 chain: T2 sequence (looked up)

B1: Ab12 IgG2/K (antibody, V domains shown)
VH: QVQLQESGPGLVKPSETLSLTCTVSGASISSYYWSWIRQPPGKGLEWIGYIYYSGSTNYNPSLKSRVTISVDTSKNQFSLKLRSVTAADTAVYYCARERLGIGDYWGQGTLVTVSS
VL: DIQLTQSPSSLSASVGDRVTITCRASQGIRNDLGWYQQKPGKAPKRLIYAASSLQSGVPSRFSGSGSGTEFTLTISSLQPEDFATYYCLQHNTYPPTFGQGTKVEIK
notes: Human IgG2/kappa
B2: Ab12.122 (antibody, IgG2, V domains shown)
VH: B1 VH with Y53G, S54E
VL: B1 VL
B3: Ab12.121 (antibody, IgG2, V domains shown)
VH: B1 VH with Y52G, Y53G
VL: B1 VL
B4: Ab12.123 (antibody, IgG2, V domains shown)
VH: B1 VH with Y52G, S54E
VL: B1 VL
B5: Ab12.120 (antibody, IgG2, V domains shown)
VH: B1 VH with S54E
VL: B1 VL
B6: Ab12.119 (antibody, IgG2, V domains shown)
VH: B1 VH with Y53G
VL: B1 VL
B7: Ab12.56 (antibody, V domains shown)
VH: B1 VH with Y52A, Y53G, S54T
VL: B1 VL
notes: CDRH2 Y Y S is changed to A G T against Ab12
B8: Ab12.118 (antibody, IgG2, V domains shown)
VH: B1 VH with Y52G
VL: B1 VL
B9: Ab12.6 (antibody, V domains shown)
VH: B1 VH with Y52G, Y53G, S54E
VL: B1 VL
notes: CDRH2 Y Y S is changed to G G E against Ab12; also called H2-1-3 R2 #6
B10: Ab12.70 (antibody, V domains shown)
VH: B1 VH with Y53S, S54P, G55S
VL: B1 VL
notes: also called H2-4-1 R2 #8,9
B11: Ab12 scFv construct with Gly/Ser linker (WT) in both the tether and scFv linker positions, displayed on yeast (scFv)
scFv: GGGGSGGGGSGGGGSQVQLQESGPGLVKPSETLSLTCTVSGASISSYYWSWIRQPPGKGLEWIGYIYYSGSTNYNPSLKSRVTISVDTSKNQFSLKLRSVTAADTAVYYCARERLGIGDYWGQGTLVTVSSGGGGSGGGGSGGGGSDIQLTQSPSSLSASVGDRVTITCRASQGIRNDLGWYQQKPGKAPKRLIYAASSLQSGVPSRFSGSGSGTEFTLTISSLQPEDFATYYCLQHNTYPPTFGQGTKVEIK
B12: Ab12 scFv construct with linker 41 in the tether position and linker 34 in the scFv linker position, displayed on yeast (scFv)
scFv: GENKVEYAPALMALSQVQLQESGPGLVKPSETLSLTCTVSGASISSYYWSWIRQPPGKGLEWIGYIYYSGSTNYNPSLKSRVTISVDTSKNQFSLKLRSVTAADTAVYYCARERLGIGDYWGQGTLVTVSSGHEAAAVMQVQYPASDIQLTQSPSSLSASVGDRVTITCRASQGIRNDLGWYQQKPGKAPKRLIYAASSLQSGVPSRFSGSGSGTEFTLTISSLQPEDFATYYCLQHNTYPPTFGQGTKVEIK
B13: Ab12 scFv construct with linker 41 in the tether position and the Gly/Ser linker (WT) in the scFv linker position, displayed on yeast (scFv)
scFv: GENKVEYAPALMALSQVQLQESGPGLVKPSETLSLTCTVSGASISSYYWSWIRQPPGKGLEWIGYIYYSGSTNYNPSLKSRVTISVDTSKNQFSLKLRSVTAADTAVYYCARERLGIGDYWGQGTLVTVSSGGGGSGGGGSGGGGSDIQLTQSPSSLSASVGDRVTITCRASQGIRNDLGWYQQKPGKAPKRLIYAASSLQSGVPSRFSGSGSGTEFTLTISSLQPEDFATYYCLQHNTYPPTFGQGTKVEIK
B14: Ab12 41/40 scFv (linker 41 as tether, linker 40 as scFv linker), displayed on yeast (scFv)
scFv: GENKVEYAPALMALSQVQLQESGPGLVKPSETLSLTCTVSGASISSYYWSWIRQPPGKGLEWIGYIYYSGSTNYNPSLKSRVTISVDTSKNQFSLKLRSVTAADTAVYYCARERLGIGDYWGQGTLVTVSSGPAKELTPLKEAKVSDIQLTQSPSSLSASVGDRVTITCRASQGIRNDLGWYQQKPGKAPKRLIYAASSLQSGVPSRFSGSGSGTEFTLTISSLQPEDFATYYCLQHNTYPPTFGQGTKVEIK

Residue numbers refer to the chain shown, from its start.

The first assay addresses T1, human erythropoietin receptor (EpoR) on …. Briefly: cell-based or functional assay.
In the case of B1, the “EC50 (cell proliferation)” value is 1.29 nM and the “Emax (cell proliferation, absorbance)” value was 1.98 absorbance (OD 490 nm).
Regarding B2, the “EC50 (cell proliferation)” value turned out to be 0.42 nM and the “Emax (cell proliferation, absorbance)” value is 2.4 absorbance (OD 490 nm).
For B3, in that order: 0.465 nM and 2.3 absorbance (OD 490 nm).
For B4, in that order: 0.91 nM and 2.7 absorbance (OD 490 nm).
For B5, in that order: 0.34 nM and 2 absorbance (OD 490 nm).
For B6, the “EC50 (cell proliferation)” value was determined as 1.34 nM and the “Emax (cell proliferation, absorbance)” value was 2.53 absorbance (OD 490 nm).
For B7, in that order: 1.17 nM and 2.51 absorbance (OD 490 nm).
Consider B8, for which the “EC50 (cell proliferation)” value turned out to be 1.13 nM and the “Emax (cell proliferation, absorbance)” value is 2.65 absorbance (OD 490 nm).
For B9, in that order: 0.58 nM and 2.81 absorbance (OD 490 nm).

A further assay addresses T2, soluble EpoR (EposR). Briefly: SPR (BIAcore), IgG2/K antibody, EposR as test antigen. On the procedure: (§1) BIAcore analyses were performed on a BIAcore 2000 utilizing the BIAcontrol software version 3.1.0 and on a BIAcore 3000 utilizing the BIAcontrol software version 4.0.1. (BIAcore, Uppsala, Sweden) using EposR as the test antigen.
On the technique in general: SPR reads the build-up and loss of mass on a sensor chip optically.
Consider B1, for which the Kd (in general, the free concentration of one partner at which half of the binding sites on the other are occupied at equilibrium, for simple one-to-one binding) amounted to 11 nM; the koff – broadly, the first-order rate constant of dissociation – turned out to be 0.0013 s⁻¹; the kon (in general, the rate constant with which the complex forms) came to 140000 M⁻¹ s⁻¹.
For B10, in that order: 6 nM, 0.00099 s⁻¹ and 160000 M⁻¹ s⁻¹.
For B7, in that order: 20 nM, 0.0019 s⁻¹ and 94000 M⁻¹ s⁻¹.
For B9, in that order: 32 nM, 0.0048 s⁻¹ and 150000 M⁻¹ s⁻¹.

Another assay has as its target T3, soluble EpoR (EposR). Put plainly: yeast display flow cytometry. On the technique in general: Flow cytometry measures light scatter and fluorescence of single cells or particles in a stream.
Molecule B11 came in with a Kd of 9 nM.
The same measure, in the same setting: the result for B12 reads 8.5 nM; that for B13, 5 nM; that for B14, 4 nM.

For the next assay, the target named is T2, soluble EpoR (EposR). Briefly: SPR (BIAcore), IgG2/K sub-variant of Ab12.6, EposR as test antigen. How it is done:
as §1
Sub-variants also were subjected to BIAcore analyses as described above.
For B2, binding was put at a Kd of 23 nM, the koff amounted to 0.0049 s⁻¹ and the kon is 220000 M⁻¹ s⁻¹.
For B3, in that order: 31 nM, 0.0063 s⁻¹ and 210000 M⁻¹ s⁻¹.
For B4, in that order: 25 nM, 0.0033 s⁻¹ and 130000 M⁻¹ s⁻¹.
For B5, in that order: 7 nM, 0.002 s⁻¹ and 270000 M⁻¹ s⁻¹.
The molecule B6 had a Kd of 21 nM, a koff of 0.0044 s⁻¹ and a kon of 210000 M⁻¹ s⁻¹.
For B8, in that order: 22 nM, 0.0055 s⁻¹ and 250000 M⁻¹ s⁻¹.
